Laboratory results taken from article PMC7891396.

Biological target: Int^C-eGFP-H6 with the C124A and N146A mutations (construct 9), inactivated C-terminal precursor of the AceL NrdHF split intein (not stated (metagenomic contig from the Antarctic Ace Lake, might originate from a bacteriophage))
Test: MST; Monolith NT.115; 9 at 8.8 nM (eGFP as fluorophore), 1 in a dilution series from 2500 to 0.61 nM; BSA 0.05 % (w/v) and Tween-20 0.1 % (v/v) added; 20 % MST power, 20 % blue LED; four parametric sigmoidal fit

Which Kd does the source give for “MBP-Int^N-H6 (1), N-terminal precursor of the AceL NrdHF split intein (domain or fragment)” here?
The Kd was 82.2 nM.
